Results: patent publication US11406723B2, “Radiotherapeutic and companion imaging agents to target MC1R” (H. LEE MOFFITT CANCER CENTER AND RESEARCH INSTITUTE, INC., priority 2015, dated 2022)
Values joined by “and” are separate entries in the source; they are usually repeats but may differ in a detail not shown here. Equal entries are not always repeated. Where a SMILES comes first, the peptide text is derived from it. Side-chain parts run from the residue outwards. [ ]: non-standard residue; d: D form. The star is where a group is joined. 1‑Phenylbutyric acid = 1-phenylbutyric acid N-terminal cap; DOTA = O=C(O)CN1CCN(CC(=O)O)CCN(CC(=O)*)CCN(CC(=O)O)CC1; Butanoyl(4-Ph) = O=C(CCCc1ccccc1)*; Ahx = NCCCCCC(=O)O

Columns and labels:
A375/MC1R tumors = assay: Efficacy in SCID mice bearing A375/MC1R tumors; format: in vivo; settings: after injection; control groups
Procedure: Mice were observed daily for health and twice per week weighed and tumor volumes measured by caliper. When the tumors reach 2000 mm^3 (experimental endpoint), animals were euthanized. Euthanizations prior to 2000 mm^3 were due to clinical endpoints, i.e. predominantly due to tumor ulceration.
1.9-3.3 μCi of MC1RL-DOTA-^225Ac, 1.8-2.7 μCi of scrambled peptide-DOTA-^225Ac, an excess of the cold agent (MC1RL-DOTA-^139La) and saline were injected to the SCID mice bearing A375/MC1R tumors injection (n=10 per group, volume of the tumors: 57-266 mm3). Mice were observed daily for health and twice per week weighed and tumor volumes measured by caliper. When the tumors reach 2000 mm^3 (experimental endpoint), animals were euthanized. Euthanizations prior to 2000 mm^3 were due to clinical endpoints, i.e. predominantly due to tumor ulceration.
These 2 mice are currently tumor free 150 days post injection. The other 7 treated mice were euthanized at an average of 86 days due to tumor ulceration without progression. While the median time-to-endpoint (tumor >2000 mm^3) of control mice treated with saline, MC1RL-DOTA-^139La (cold surrogate) and scrambled peptide-DOTA-^225Ac were 22, 24 and 32 days respectively after injection.

MC1R (Hek293/MC1R cells) [1] = target: T1, MC1R (Hek293/MC1R cells) (Homo sapiens, UniProt Q01726); assay: Saturation TRF binding assay with europium-chelated compounds; settings: Eu chelate; 20x MC1RL-DOTA used for blocking; two repeats; read-out: Kd, specific saturation binding
T1 construct: expressed in transfected cells; host or cells: Hek293
Text: The binding sequence is 1-Phenylbutyric acid-His(D)Phe-Arg-Trp-Gly-Lys(Ahx-DOTA)-CONH2. Eu is chelated into the conjugated DOTA for lanthanide-based binding assays but ^225Ac, ^68Ga, or ^111In can also be chelated. […] 20×MC1Rl-DOTA was used for blocking. […] Data is the result of two repeats.
The binding sequence is 1-Phenylbutyric acid-His(D)Phe-Arg-Trp-Gly-Lys(DOTA)-CONH2. Eu is chelated into the conjugated DOTA for lanthanide-based binding assays but ^225AC, ^68Ga, or ^111In can also be chelated. […] 20×MC1Rl-DOTA was used for blocking. […] Data is the result of two repeats.
The binding sequence is 1-Phenylbutyric acid-His(D)Phe-Arg-Trp-Gly-Lys(D-di-Glu-DOTA)-CONH2. Eu is chelated into the conjugated DOTA for lanthanide-based binding assays but ^225Ac, ^68Ga, or ^111In can also be chelated. […] 20×MC1Rl-DOTA was used for blocking. […] Data is the result of two repeats.
Time-resolved fluorescence (TRF) competition binding assays were performed to determine binding affinities of these DOTA conjugates (FIG. 2). The TRF method takes advantage of the long fluorescence lifetime of the lanthanide Europium and can detect less than one attomole in a multiwell plate sample. Hek293/MC1R cells (Hek293 cells engineered to over-express MC1R) were used for the binding assays. […]

[2] = tested on: A375/MC1R and A375 xenograft tumors; assay: In vivo tumor targeting, bilateral A375/MC1R and A375 xenografts, fluorescence imaging; design: species or system nude mice; settings: 4 h post-injection, i.v., P≤0.05, n=3
Procedure: FIG. 3 contains data from in vivo targeting of a MC1R specific probe. Left mice: Representative images of normalized fluorescence intensity maps overlaid on mice bearing xenograft tumors. […] A blocking experiment (right mouse) was performed by coinjection of 0.25 μg unlabeled NDP-α-MSH and 3 nmol/kg of the MC1RL-800 probe. […] Right mouse: Representative tomographic image of a mouse bearing a B16F10 xenograft tumor at 4 h after injection of 3 nmol/kg of the MC1RL-800 imaging probe using the FMT 2500 LX quantitative fluorescence tomography in vivo imaging system (PerkinElmer).
Previously, to investigate tumor targeting of the infrared conjugate of the ligand in vivo, bilateral subcutaneous xenograft tumors with A375/MC1R engineered cells in the right flank and A375 parental cells with relatively low MC1R expression in the left flank of nude mice and MC1RL-800 probe was injected intravenously and fluorescence accumulation was monitored over time. […] In vivo blocking studies were performed to determine that probe retention in the tumor was due to specific binding (FIG. 3, left mice).

MC1R = MC1R (Homo sapiens, UniProt Q01726); settings: read-out: binding affinity (Ki); cited from earlier work
[3] = in vivo fluorescence imaging and mathematical model; cited from earlier work
MC1R (Hek293/MC1R cells) [4] = target: T1, MC1R (Hek293/MC1R cells); assay: Time-resolved fluorescence (TRF) competition binding assay; settings: competitive binding, read-out: binding affinity to MC1R (Ki)
Procedure: FIG. 2 is a graph from representative competitive binding assays of the ^139La- and ^69Ga-DOTA-MC1RL peptides.
Time-resolved fluorescence (TRF) competition binding assays were performed to determine binding affinities of these DOTA conjugates (FIG. 2). The TRF method takes advantage of the long fluorescence lifetime of the lanthanide Europium and can detect less than one attomole in a multiwell plate sample. Hek293/MC1R cells (Hek293 cells engineered to over-express MC1R) were used for the binding assays. Saturation TRF binding assays were performed using versions of the compounds with chelated europium to determine specific and non-specific binding (FIG. 17-20).

[5] = MTD study of the radiotherapeutic agent; format: in vivo, mice
Text: FIGS. 6A, 6B and 6C are graphs from a MTD study of ^225Ac-DOTA-MC1RL radio-therapeutic agent.
(Table 3). […] Blood urea nitrogen (BUN) (FIG. 6B) and blood creatinine (FIG. 6C) levels, and pathology of a range of tissues including heart, lungs, brain, kidney and liver were all unremarkable.

T1 sequence (Q01726 whole entry): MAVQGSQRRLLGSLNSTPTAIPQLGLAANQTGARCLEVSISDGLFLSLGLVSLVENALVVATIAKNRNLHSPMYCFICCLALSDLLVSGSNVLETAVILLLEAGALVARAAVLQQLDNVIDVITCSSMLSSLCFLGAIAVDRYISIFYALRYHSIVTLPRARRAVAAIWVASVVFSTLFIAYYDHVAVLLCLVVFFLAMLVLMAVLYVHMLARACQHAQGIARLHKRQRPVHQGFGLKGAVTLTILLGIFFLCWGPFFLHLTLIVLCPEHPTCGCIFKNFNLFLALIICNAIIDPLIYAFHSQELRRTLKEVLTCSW
MC1R, sequence (Q01726 whole entry): as above

N=C(N)NCCC[C@H](NC(=O)[C@@H](Cc1ccccc1)NC(=O)[C@H](Cc1c[nH]cn1)NC(=O)CCCc1ccccc1)C(=O)N[C@@H](Cc1c[nH]c2ccccc12)C(=O)NCC(=O)N[C@@H](CCCCNC(=O)CCCCCNC(=O)CN1CCN(CC(=O)O)CCN(CC(=O)O)CCN(CC(=O)O)CC1)C(N)=O (139La complex, metal not drawn) [^139La-DOTA-MC1RL] ({Butanoyl(4-Ph)}-H[dF]RWGK([Ahx-DOTA])-NH2)
median time-to-endpoint (tumor >2000 mm^3) (A375/MC1R tumors): 24 days

N=C(N)NCCC[C@H](NC(=O)[C@@H](Cc1ccccc1)NC(=O)[C@H](Cc1c[nH]cn1)NC(=O)CCCc1ccccc1)C(=O)N[C@@H](Cc1c[nH]c2ccccc12)C(=O)NCC(=O)N[C@@H](CCCCNC(=O)CCCCCNC(=O)CN1CCN(CC(=O)O)CCN(CC(=O)O)CCN(CC(=O)O)CC1)C(N)=O [1-Phenylbutyric acid-His(D)Phe-Arg-Trp-Gly-Lys(Ahx-DOTA)-CONH2] ({Butanoyl(4-Ph)}-H[dF]RWGK([Ahx-DOTA])-NH2)
Kd (MC1R (Hek293/MC1R cells) [1]): 0.88 nM

MC1RL-800: near-infrared fluorescent (NIRF) dye conjugated analog of MC1RL, imaging probe ({1‑Phenylbutyric acid}-H[dF]RWGK-NH2; also: NIR dye 800 conjugate, site not given here)
normalized fluorescence signal of low-MC1R A375 tumors compared to A375/MC1R tumors [2]: significantly lower normalized fluorescence signal | Ki (MC1R): 0.4 ± 0.1 nM | clearance [3]: rapid renal clearance | crossing of the blood brain barrier (BBB) [3]: does not cross the BBB

N=C(N)NCCC[C@H](NC(=O)[C@@H](Cc1ccccc1)NC(=O)[C@H](Cc1c[nH]cn1)NC(=O)CCCc1ccccc1)C(=O)N[C@@H](Cc1c[nH]c2ccccc12)C(=O)NCC(=O)N[C@@H](CCCCNC(=O)CCCCCNC(=O)CN1CCN(CC(=O)O)CCN(CC(=O)O)CCN(CC(=O)O)CC1)C(N)=O [DOTA-MC1RL] ({Butanoyl(4-Ph)}-H[dF]RWGK([Ahx-DOTA])-NH2)
Ki (MC1R (Hek293/MC1R cells) [4]): 0.24 nM and 0.3 nM

N=C(N)NCCC[C@H](NC(=O)[C@@H](Cc1ccccc1)NC(=O)[C@H](Cc1c[nH]cn1)NC(=O)CCCc1ccccc1)C(=O)N[C@@H](Cc1c[nH]c2ccccc12)C(=O)NCC(=O)N[C@@H](CCCCNC(=O)CCCCCNC(=O)CN1CCN(CC(=O)O)CCN(CC(=O)O)CCN(CC(=O)O)CC1)C(N)=O [^225Ac-DOTA-MC1RL, metal not drawn] ({Butanoyl(4-Ph)}-H[dF]RWGK([Ahx-DOTA])-NH2)
overall tolerability ([5]; MTD study): tolerated extremely well | behavior in MTD study ([5]; range of radioactivities): no signs of altered behavior | blood creatinine level ([5]; range of radioactivities): unremarkable | blood urea nitrogen (BUN) level ([5]; range of radioactivities): unremarkable | pathology of tissues including heart, lungs, brain, kidney and liver ([5]; range of radioactivities): unremarkable | weight gain in MTD study ([5]; range of radioactivities, weight gain decreased with increased activity): All mice gained weight
